Publication PMC6590835, “A unified mechanism for LLPS of ALS/FTLD-causing FUS as well as its modulation by ATP and oligonucleic acids”

Experiments:
[1] = molecular target: FUS U-CTD (RGG2-ZnF-RGG3, ZnF unfolded) (UniProt P35637 371-526); assay: NMR HSQC titration (CSD); no Zn; 1:10; Arg/Lys residues; 20 uM protein, 5 mM sodium phosphate pH 6.0, 1 mM MgCl2 (ZnCl2 added for full-length FUS and F-CTD), 25 C; details: protein: recombinant, tags: none
[2] = molecular target: T1, FUS NTD (PLD+RGG1) (UniProt P35637 1-267); assay: NMR HSQC titration; 1 mM MgCl2; same residues as TssDNA; 20 uM protein, 5 mM sodium phosphate pH 6.0, 1 mM MgCl2 (ZnCl2 added for full-length FUS and F-CTD), 25 C; details: protein: recombinant; tags: none; unstructured (CD)
T1 sequence (P35637 1-267): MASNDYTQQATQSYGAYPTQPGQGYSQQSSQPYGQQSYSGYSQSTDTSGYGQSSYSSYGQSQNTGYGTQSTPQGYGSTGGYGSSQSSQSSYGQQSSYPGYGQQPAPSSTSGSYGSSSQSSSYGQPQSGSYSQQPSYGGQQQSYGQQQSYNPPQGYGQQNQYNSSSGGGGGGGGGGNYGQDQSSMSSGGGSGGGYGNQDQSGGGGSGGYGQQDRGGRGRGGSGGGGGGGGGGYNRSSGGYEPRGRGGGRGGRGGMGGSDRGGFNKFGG

[3] = molecular target: T2, FUS F-CTD (RGG2-ZnF-RGG3, ZnF folded) (UniProt P35637 371-526); assay: NMR HSQC titration (line broadening); Zn2+; same pattern as TssDNA; 20 uM protein, 5 mM sodium phosphate pH 6.0, 1 mM MgCl2 (ZnCl2 added for full-length FUS and F-CTD), 25 C; details: protein: recombinant; tags: none; unstructured (CD)
T2 sequence (P35637 371-526): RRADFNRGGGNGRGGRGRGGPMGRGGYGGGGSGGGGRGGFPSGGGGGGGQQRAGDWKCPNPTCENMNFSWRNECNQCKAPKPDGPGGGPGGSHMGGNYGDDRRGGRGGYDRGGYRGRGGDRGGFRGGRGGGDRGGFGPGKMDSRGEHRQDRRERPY

[4] = molecular target: T3, FUS full-length (UniProt P35637 1-526); assay: NMR HSQC titration (line broadening); Zn2+; highly similar to TssDNA; 20 uM protein, 5 mM sodium phosphate pH 6.0, 1 mM MgCl2 (ZnCl2 added for full-length FUS and F-CTD), 25 C; details: protein: recombinant; tags: none (His-tag removed by stop codon); unstructured (CD)
T3 sequence (P35637 whole entry): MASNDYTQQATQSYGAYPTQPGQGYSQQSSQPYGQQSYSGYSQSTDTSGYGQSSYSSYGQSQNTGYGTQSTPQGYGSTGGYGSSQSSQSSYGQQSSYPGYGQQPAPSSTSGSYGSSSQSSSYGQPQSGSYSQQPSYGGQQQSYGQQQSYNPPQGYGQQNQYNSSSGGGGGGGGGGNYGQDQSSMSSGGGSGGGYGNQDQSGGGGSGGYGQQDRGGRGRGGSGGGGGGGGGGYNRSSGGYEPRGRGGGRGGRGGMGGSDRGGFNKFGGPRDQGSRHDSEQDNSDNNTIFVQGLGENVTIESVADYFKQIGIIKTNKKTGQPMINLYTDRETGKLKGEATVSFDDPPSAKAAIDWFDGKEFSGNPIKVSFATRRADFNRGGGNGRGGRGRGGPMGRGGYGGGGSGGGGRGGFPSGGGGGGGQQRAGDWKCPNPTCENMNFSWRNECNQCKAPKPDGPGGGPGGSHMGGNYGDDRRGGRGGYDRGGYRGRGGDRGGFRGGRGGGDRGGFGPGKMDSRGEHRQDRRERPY

[5] = molecular target: T3, FUS full-length; assay: NMR HSQC competition (displaces ATP); 3 mM ATP; 0.3 mM TssDNA; 20 uM protein, 5 mM sodium phosphate pH 6.0, 1 mM MgCl2 (ZnCl2 added for full-length FUS and F-CTD), 25 C; details: protein: recombinant; tags: none (His-tag removed by stop codon); G4 (by CD in the phosphate buffer)
[6] = molecular target: T1, FUS NTD (PLD+RGG1); assay: NMR HSQC titration; 1 mM MgCl2; saturated at 1:2; RGG1 residues; 20 uM protein, 5 mM sodium phosphate pH 6.0, 1 mM MgCl2 (ZnCl2 added for full-length FUS and F-CTD), 25 C; details: protein: recombinant; tags: none; G4 (by CD in the phosphate buffer)
[7] = molecular target: T2, FUS F-CTD (RGG2-ZnF-RGG3, ZnF folded); assay: NMR HSQC titration (line broadening); Zn2+; all peaks lost at 1:1; 20 uM protein, 5 mM sodium phosphate pH 6.0, 1 mM MgCl2 (ZnCl2 added for full-length FUS and F-CTD), 25 C; details: protein: recombinant; tags: none; G4 (by CD in the phosphate buffer)

Measured: binding result

Chain of FUS U-CTD (RGG2-ZnF-RGG3, ZnF unfolded) (P35637 371-526): as the sequence (P35637 371-526) above

TTTTTTTTTTTTTTTTTTTTTTTT (ssDNA) [T24]
binds: [1]; unstructured (CD) | [2] | [3] | [4]

TTAGGGTTAGGGTTAGGGTTAGGG (structured_DNA) [TssDNA (telomeric ssDNA, 24-mer)]
binds: [1]; G4 (by CD in the phosphate buffer) | [5] | [6] | [7]
